{"source": "patent US9738911B2", "about": "“Methods of producing 7-carbon chemicals via pyruvate and succinate semialdehyde aldol condensation” (INVISTA North America S.a r.l., priority 2012, dated 2017)", "molecules": {"B1": {"name": "SEQ ID NO 7: Segniliparus rotundus carboxylate reductase (Genbank Accession No. ADG98140.1) (protein, listed as Segniliparus rotundus)", "chain": "MTQSHTQGPQASAAHSRLARRAAELLATDPQAAATLPDPEVVRQATRPGLRLAERVDAILSGYADRPALGQRSFQTVKDPITGRSSVELLPTFDTITYRELRERATAIASDLAHHPQAPAKPGDFLASIGFISVDYVAIDIAGVFAGLTAVPLQTGATLATLTAITAETAPTLFAASIEHLPTAVDAVLATPSVRRLLVFDYRAGSDEDREAVEAAKRKIADAGSSVLVDVLDEVIARGKSAPKAPLPPATDAGDDSLSLLIYTSGSTGTPKGAMYPERNVAHFWGGVWAAAFDEDAAPPVPAINITFLPLSHVASRLSLMPTLARGGLMHFVAKSDLSTLFEDLKLARPTNLFLVPRVVEMLYQHYQSELDRRGVQDGTREAEAVKDDLRTGLLGGRILTAGFGSAPLSAELAGFIESLLQIHLVDGYGSTEAGPVWRDGYLVKPPVTDYKLIDVPELGYFSTDSPHPRGELAIKTQTILPGYYKRPETTAEVFDEDGFYLTGDVVAQIGPEQFAYVDRRKNVLKLSQGEFVTLAKLEAAYSSSPLVRQLFVYGSSERSYLLAVIVPTPDALKKFGVGEAAKAALGESLQKIARDEGLQSYEVPRDFIIETDPFTVENGLLSDARKSLRPKLKEHYGERLEAMYKELADGQANELRDIRRGVQQRPTLETVRRAAAAMLGASAAEIKPDAHFTDLGGDSLSALTFSNFLHDLFEVDVPVGVIVSAANTLGSVAEHIDAQLAGGRARPTFATVHGKGSTTIKASDLTLDKFIDEQTLEAAKHLPKPADPPRTVLLTGANGWLGRFLALEWLERLAPAGGKLITIVRGKDAAQAKARLDAAYESGDPKLAGHYQDLAATTLEVLAGDFSEPRLGLDEATWNRLADEVDFISHPGALVNHVLPYNQLFGPNVAGVAEIIKLAITTRIKPVTYLSTVAVAAGVEPSALDEDGDIRTVSAERSVDEGYANGYGNSKWGGEVLLREAHDRTGLPVRVFRSDMILAHQKYTGQVNATDQFTRLVQSLLATGLAPKSFYELDAQGNRQRAHYDGIPVDFTAESITTLGGDGLEGYRSYNVFNPHRDGVGLDEFVDWLIEAGHPITRIDDYDQWLSRFETSLRGLPESKRQASVLPLLHAFARPGPAVDGSPFRNTVFRTDVQKAKIGAEHDIPHLGKALVLKYADDIKQLGLL"}}, "type_in_all_cases": "biochemical", "key": {"[1]": {"assay": "Carboxylate reductase activity assay, pimelate semialdehyde to heptanedial", "details": "2 mM pimelate semialdehyde, 1 mM ATP, 1 mM NADPH, enhanced by sfp gene product, room temperature, 20 min; against empty vector control (FIG. 13)", "procedure": "The N-terminal His-tagged carboxylate reductase of SEQ ID NO 7 (see Example 4 and FIG. 7F) was assayed using pimelate semialdehyde as substrate. The enzyme activity assay was performed in triplicate in a buffer composed of a final concentration of 50 mM HEPES buffer (pH=7.5), 2 mM pimelate semialdehyde, 10 mM MgCl2, 1 mM ATP and 1 mM NADPH. The enzyme activity assay reaction was initiated by adding purified carboxylate reductase and phosphopantetheine transferase or the empty vector control to the assay buffer containing the pimelate semialdehyde and then incubated at room temperature for 20 min. The consumption of NADPH was monitored by absorbance at 340 nm."}, "[2]": {"assay": "Carboxylate reductase activity assay, N7-acetyl-7-aminoheptanoate to N7-acetyl-7-aminoheptanal", "details": "2 mM N7-acetyl-7-aminoheptanoate, 1 mM ATP, 1 mM NADPH, enhanced by sfp gene product, room temperature, 20 min; against empty vector control (FIG. 12)", "procedure": "The activity of each of the N-terminal His-tagged carboxylate reductases of SEQ ID NOs: 3, 6, and 7 (see Examples 4, and FIGS. 7B, 7E, and 7F) for converting N7-acetyl-7-aminoheptanoate to N7-acetyl-7-aminoheptanal was assayed in triplicate in a buffer composed of a final concentration of 50 mM HEPES buffer (pH=7.5), 2 mM N7-acetyl-7-aminoheptanoate, 10 mM MgCl2, 1 mM ATP, and 1 mM NADPH. The assays were initiated by adding purified carboxylate reductase and phosphopantetheine transferase or the empty vector control to the assay buffer containing the N7-acetyl-7-aminoheptanoate then incubated at room temperature for 20 min. The consumption of NADPH was monitored by absorbance at 340 nm."}, "[3]": {"assay": "Carboxylate reductase activity assay, pimelate to pimelate semialdehyde", "details": "2 mM pimelate, 1 mM ATP, 1 mM NADPH, enhanced by sfp gene product, room temperature, 20 min; against empty vector control (FIG. 10)", "procedure": "A sequence encoding a HIS-tag was added to the genes from Segniliparus rugosus and Segniliparus rotundus that encode the carboxylate reductases of SEQ ID NOs: 4 and 7, respectively (see FIGS. 7C and 7F), such that N-terminal HIS tagged carboxylate reductases could be produced. Each of the modified genes was cloned into a pET Duet expression vector along with a sfp gene encoding a HIS-tagged phosphopantetheine transferase from Bacillus subtilis, both under the T7 promoter. Each expression vector was transformed into a BL21[DE3] E. coli host and the resulting recombinant E. coli strains were cultivated at 37° C. in a 250 mL shake flask culture containing 50 mL LB media and antibiotic selection pressure, with shaking at 230 rpm. Each culture was induced overnight at 37° C. using an auto-induction media.\nThe pellet from each induced shake flask culture was harvested via centrifugation. Each pellet was resuspended and lysed via sonication, and the cell debris was separated from the supernatant via centrifugation. […]\nEnzyme activity assays (i.e., from pimelate to pimelate semialdehyde) were performed in triplicate in a buffer composed of a final concentration of 50 mM HEPES buffer (pH=7.5), 2 mM pimelate, 10 mM MgCl, 1 mM ATP and 1 mM NADPH. […] The consumption of NADPH was monitored by absorbance at 340 nm."}}}
{"molecule": "B1", "values": [{"measurement": "substrate acceptance, consumption of NADPH by absorbance at 340 nm", "setting": "[1]", "value": "accepted pimelate semialdehyde as substrate"}, {"measurement": "substrate acceptance, consumption of NADPH by absorbance at 340 nm", "setting": "[2]", "value": "accepted N7-acetyl-7-aminoheptanoate as substrate"}, {"measurement": "substrate acceptance, consumption of NADPH by absorbance at 340 nm", "setting": "[3]", "value": "accepted pimelate as substrate"}]}
